Data from IntAct's records for PubMed 16330715.

B1: Neutrophil cytosol factor 1 (Homo sapiens), P14598 (parent)
chain: MGDTFIRHIALLGFEKRFVPSQHYVYMFLVKWQDLSEKVVYRRFTEIYEFHKTLKEMFPIEAGAINPENRIIPHLPAPKWFDGQRAAENRQGTLTEYCSTLMSLPTKISRCPHLLDFFKVRPDDLKLPTDNQTKKPETYLMPKDGKSTATDITGPIILQTYRAIANYEKTSGSEMALSTGDVVEVVEKSESGWWFCQMKAKRGWIPASFLEPLDSPDETEDPEPNYAGEPYVAIKAYTAVEGDEVSLLEGEAVEVIHKLLDGWWVIRKDDVTGYFPSMYLQKSGQDVSQAQRQIKRGAPPRRSSIRNAHSIHQRSRKRLSQDAYRRNSVRFLQQRRRQARPGPQSPGSPLEEERQTQRSKPQPAVPPRPSADLILNRCSESTKRKLASAV

Variants of: B1
Conditions: with fak2_human PTK2B

Variant	effect of a mutation on the interaction
S303D;S304D;S328D	increasing interaction strength
W193R	disrupting interaction strength
